This assay concerns the target human GPR49 (LGR5), on cells (human) (UniProt O75473). Nature of the assay: cell-based or functional assay.
Chain of UniProt O75473 (O75473 22-907 limits assumed): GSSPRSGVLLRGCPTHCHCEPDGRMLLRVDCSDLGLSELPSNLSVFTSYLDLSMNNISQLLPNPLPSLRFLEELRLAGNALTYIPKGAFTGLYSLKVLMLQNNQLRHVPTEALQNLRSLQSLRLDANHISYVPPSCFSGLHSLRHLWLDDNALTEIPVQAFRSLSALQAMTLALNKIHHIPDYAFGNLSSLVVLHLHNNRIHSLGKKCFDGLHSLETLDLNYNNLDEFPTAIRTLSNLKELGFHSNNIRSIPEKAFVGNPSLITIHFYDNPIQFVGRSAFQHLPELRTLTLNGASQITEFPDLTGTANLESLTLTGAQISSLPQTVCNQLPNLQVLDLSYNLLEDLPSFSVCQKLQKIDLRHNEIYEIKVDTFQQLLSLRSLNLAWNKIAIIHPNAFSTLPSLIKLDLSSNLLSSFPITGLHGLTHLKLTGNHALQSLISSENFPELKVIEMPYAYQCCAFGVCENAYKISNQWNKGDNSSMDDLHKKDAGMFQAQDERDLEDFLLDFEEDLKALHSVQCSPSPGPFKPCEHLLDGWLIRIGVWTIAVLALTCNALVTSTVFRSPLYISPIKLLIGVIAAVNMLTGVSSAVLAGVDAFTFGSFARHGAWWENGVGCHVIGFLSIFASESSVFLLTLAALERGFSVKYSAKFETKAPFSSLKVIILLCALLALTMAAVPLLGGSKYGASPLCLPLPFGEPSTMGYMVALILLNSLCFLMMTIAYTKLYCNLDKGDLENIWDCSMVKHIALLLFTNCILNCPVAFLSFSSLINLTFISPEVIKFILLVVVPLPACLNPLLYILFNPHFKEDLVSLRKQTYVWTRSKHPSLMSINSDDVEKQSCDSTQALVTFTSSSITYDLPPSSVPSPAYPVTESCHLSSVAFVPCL

R-spondin 1 (ligand) showed an increase in proliferation of GPR49-3T3 clone 28 of 4 fold.

The values above are taken from patent publication US20140302049A1.
